In patent publication US20210155676A1 (Gilead, published 2021):

Assays:
HIV-1 BaL Env (on virus) = HIV-1 BaL Env (on virus) (HIV-1 strain BaL); experiment: cell-based or functional assay
[1] = target: HIV-1 92US712 Env (on virus) (HIV-1 isolate 92US712); experiment: cell-based or functional assay
[2] = target: HIV-1 92US727 Env (on virus) (HIV-1 isolate 92US727); experiment: cell-based or functional assay
[3] = target: HIV-1 92US657 Env (on virus) (HIV-1 isolate 92US657); experiment: cell-based or functional assay
[4] = target: HIV-1 93HT593 Env (on virus) (HIV-1 isolate 93HT593); experiment: cell-based or functional assay
human FcγRIIIA [5] = target: T1, human FcγRIIIA (human, UniProt P08637 17-254); experiment: cell-based or functional assay
T1 sequence (P08637 17-254): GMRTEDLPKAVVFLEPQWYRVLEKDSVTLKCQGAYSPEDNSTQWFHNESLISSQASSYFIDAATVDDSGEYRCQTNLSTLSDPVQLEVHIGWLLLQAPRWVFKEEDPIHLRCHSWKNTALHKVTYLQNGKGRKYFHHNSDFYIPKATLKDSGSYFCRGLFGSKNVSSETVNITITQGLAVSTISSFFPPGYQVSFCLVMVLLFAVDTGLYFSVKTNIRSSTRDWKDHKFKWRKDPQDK

human FcγRIIIA [6] = target: T1, human FcγRIIIA; experiment: cell-based or functional assay; remark: listed apart in the source
human FcγRIIIA [7] = target: T1, human FcγRIIIA; experiment: cell-based or functional assay; remark: listed apart in the source
gp140 BaL = target: T2, gp140 BaL (HIV-1 strain BaL); experiment: ELISA, gp140 coated
T2 construct: domain: gp140
Protocol: (§1) The in vitro binding characteristics of antibodies for both the antigen (HIV gp120) and Fc binding receptors (FcγRs, FcRn) were determined using an Enzyme-Linked Immunosorbant Assay (ELISA).

gp140 SHIV SF162P3 = target: T3, gp140 SHIV SF162P3 (SHIV SF162P3); experiment: ELISA, gp140 coated
T3 construct: domain: gp140; also called SHIV gp140
Protocol: as §1

B1: PGT121.42 hIgG1/hLambda (antibody)
heavy: QMQLQESGPGLVKPSETLSLTCSVSGASISDSYWSWIRRSPGKGLEWIGYVHKSGDTNYNPSLKSRVHLSLDTSKNQVSLSLSSVTAADSGKYYCARTLHGRRIYGIVAFNEWFTYFYMDVWGKGTQVTVSSASTKGPSVFPLAPSSKSTSGGTAALGCLVKDYFPEPVTVSWNSGALTSGVHTFPAVLQSSGLYSLSSVVTVPSSSLGTQTYICNVNHKPSNTKVDKKVEPKSCDKTHTCPPCPAPELLAGPDVFLFPPKPKDTLMISRTPEVTCVVVDVSHEDPEVKFNWYVDGVEVHNAKTKPREEQYNSTYRVVSVLTVLHQDWLNGKEYKCKVSNKALPLPEEKTISKAKGQPREPQVYTLPPSREEMTKNQVSLTCLVKGFYPSDIAVEWESNGQPENNYKTTPPVLDSDGSFFLYSKLTVDKSRWQQGNVFSCSVLHEALHSHYTQKSLSLSPGK
light: not shown
notes: also called PTG121.42
- neutralization IC50, HIV-1 BaL, CEM.NKr.CCR5.Luc assay (HIV-1 BaL Env (on virus)): 0.015 µg/mL
- neutralization IC50, HIV-1 US712, CEM.NKr.CCR5.Luc assay [1]: 0.02 µg/mL
- neutralization IC50, HIV-1 US727, CEM.NKr.CCR5.Luc assay [2]: 0.015 µg/mL
- neutralization IC50, HIV-1 US657, CEM.NKr.CCR5.Luc assay [3]: 0.096 µg/mL
- neutralization IC50, HIV-1 HT593, CEM.NKr.CCR5.Luc assay [4]: 0.155 µg/mL
- NK ADCC EC50, HT593-infected CD4+ T cells, donor 1 (human FcγRIIIA [5]): 0.024 nM
- NK ADCC EC50, HT593-infected CD4+ T cells, donor A4588 (human FcγRIIIA [5]): 0.176 nM
- NK ADCC EC50, HT593-infected CD4+ T cells, donor A4589 (human FcγRIIIA [5]): 0.18 nM
- NK ADCC EC50, HT593-infected CD4+ T cells, donor A4813 (human FcγRIIIA [5]): 4.9 nM
- NK ADCC EC50, HT593-infected CD4+ T cells, donor A4838 (human FcγRIIIA [5]): 0.62 nM
- NK ADCC EC50, HT593-infected CD4+ T cells, donor A4839 (human FcγRIIIA [5]): 5.2 nM
- NK ADCC EC50, HT593-infected CD4+ T cells, donor X (human FcγRIIIA [5]): 0.014 nM
- NK ADCC EC50, HT593-infected CD4+ T cells, geomean of donors (human FcγRIIIA [5]): 0.3 nM
- NK ADCC EC50, US657-infected CD4+ T cells, donor A4588 (human FcγRIIIA [6]): 4.3 nM
- NK ADCC EC50, US657-infected CD4+ T cells, donor A4589 (human FcγRIIIA [6]): 1.5 nM
- NK ADCC EC50, US657-infected CD4+ T cells, donor A4595 (human FcγRIIIA [6]): 0.57 nM
- NK ADCC EC50, US657-infected CD4+ T cells, donor A4813 (human FcγRIIIA [6]): 1.4 nM
- NK ADCC EC50, US657-infected CD4+ T cells, donor A4838 (human FcγRIIIA [6]): 0.94 nM
- NK ADCC EC50, US657-infected CD4+ T cells, donor A4839 (human FcγRIIIA [6]): 0.54 nM
- NK ADCC EC50, US657-infected CD4+ T cells, geomean of donors (human FcγRIIIA [6]): 1.2 nM
- NK ADCC EC50, BaL-infected CD4+ T cells, donor A4590 (human FcγRIIIA [7]): 1.2 nM
- NK ADCC EC50, BaL-infected CD4+ T cells, donor A4591 (human FcγRIIIA [7]): 0.02 nM
- NK ADCC EC50, BaL-infected CD4+ T cells, donor A4813 (human FcγRIIIA [7]): 4.4 nM
- NK ADCC EC50, BaL-infected CD4+ T cells, donor A4838 (human FcγRIIIA [7]): 0.5 nM
- NK ADCC EC50, BaL-infected CD4+ T cells, donor A4839 (human FcγRIIIA [7]): 3.9 nM
- NK ADCC EC50, BaL-infected CD4+ T cells, geomean of donors (human FcγRIIIA [7]): 0.7 nM
- EC50 (gp140 BaL): 0.52 nM
- EC50 (gp140 SHIV SF162P3): 0.45 nM
